Assay results: patent US20220226473A1, “Nucleic acid nanocarrier drug and preparation method thereof, pharmaceutical composition and application thereof” (BAI YAO ZHI DA (BEIJING) NANOBIO TECHNOLOGY CO., LTD., priority 2018, published 2022)
{Biotin} = biotin of the strand; {Cy5} = Cy5 fluorescent label

What was measured:
[1] = tested on: MCF-7 cells; assay: Flow cytometry binding of DNAh-Bio-EGFRapt-Cy5-EPB nanoparticles; type: cell-based, human; details: 2 hours
Description: (§1) MCF-7 (source: ATCC, and article number: HTB-22), NCI-H1975 (source: ATCC, and article number: CRL-5008); a culture medium is MEM+10% FBS, and culture conditions are 37 DEG C., 5% CO2, and saturated humidity.
(§2) 1. Adjusting a cell state to a logarithmic growth phase, changing the medium to a medium without biotin and folic acid, and incubating overnight in the incubator at 37 DEG C;
(§3) 2. dissolving the substances to be tested and preparing the to-be-tested substance stock solution;
(§4) 3. digesting and collecting the single-cell suspension and counting, adjusting the cell density to 2×10^5/mL, planting 1 mL/well into the 24-well plate;
(§5) 4. respectively adding the substances to be tested to the corresponding cell wells, herein the final concentration is 2 μM, shaking and mixing uniformly;
(§6) 5. placing the cell plate in the incubator at 37 DEG C. and incubating for 2 hours;
(§7) 6. after the incubation, pancreatin-digesting and collecting the cell suspension;
(§8) 7. centrifugally collecting a cell precipitation, and washing twice with the PBS;
(§9) 8. finally, resuspending the cell precipitation with 300 μL of the PBS, and performing a flow cytometric on-machine detection;
(§10) 9. fluorescence carrier or epirubicin detection channels: excitation light wavelength: 488 nm, and emission light channel: 560 nm; and […]

[2] = tested on: NCI-H1975 cells; assay: as above; type: cell-based; details: 2 hours
Description: as §1, §2, §3, §4, §5, §6, §7, §8, §9, §10

[3] = tested on: SGC-7901 cells; assay: Flow cytometer binding of pirarubicin-loaded DNA nanoparticles; type: cell-based, human; details: SGC-7901, 2 μM, 2 hours
Description: (§11) 1). Adjusting a cell state to a logarithmic growth phase, changing the medium to a medium without biotin and folic acid, and incubating overnight in the incubator at 37 DEG C;
(§12) 2). dissolving the substances to be tested and preparing the to-be-tested substance stock solution;
(§13) 3). digesting and collecting the single-cell suspension and counting, adjusting the cell density to 2×10^5/mL, planting 1 mL/well into the 24-well plate;
(§14) 4). respectively adding the substances to be tested to the corresponding cell wells, herein the final concentration is 2 μM, shaking and mixing uniformly;
(§15) 5). placing the cell plate in the Incubator at 37 DEG C. and Incubating for 2 hours;
(§16) 6). after the incubation, pancreatin-digesting and collecting the cell suspension;
(§17) 7). centrifugally collecting a cell precipitation, and washing twice with the PBS;
(§18) 8). finally, resuspending the cell precipitation with 300 μL of the PBS, and performing a flow cytometric on-machine detection; herein detection channels of fluorescence carrier or pirarubicin targeted drug: excitation light wavelength: 488 nm, and emission light channel: 560 nm; and […]

[4] = tested on: SKOV3 cells; assay: as above; type: cell-based, human; details: SKOV3, 2 μM, 2 hours
Description: as §11, §12, §13, §14, §15, §16, §17, §18

[5] = tested on: NCI-H1975 cells; assay: Cytotoxicity of DNAh-Bio-EGFRapt-Cy5-EPB nanoparticles, CellTiter 96 AQueous One Solution; type: cell-based; details: NCI-H1975, 96 hours
Description: GraphPad Prism5.0 software is used to process data graphically. In order to calculate the IC50, “W”-shaped non-linear regression analysis is performed on the data to match a suitable dosage-effect curve. A calculation formula of the cell survival rate is as follows, the IC50 may be automatically calculated in the GraphPad Prism 5.0.

[6] = tested on: SGC-7901 cells; assay: Cytotoxicity of DNAh-Biotin-EGFRapt-Cy5-THP nanoparticles; type: cell-based, human; details: SGC-7901
Description: (§19) 2) adjusting the cell density to 2.22×10^4/mL with a growth medium:
(§20) 3) planting 90 μL/well of cell suspension into the 96-well plate, herein the number of cells per well in the plate is 2000;
(§21) 4) placing the planted cell plate in the incubator at 37 DEG C. and incubating overnight;
(§22) 5) performing 3.16-fold gradient dilution on the compound at 9 concentration points;
(§23) 6) taking out the cell culture plate, and adding 10 μL/well of 10× concentration drug working solution to the corresponding wells of the cell culture plate, herein three replicate holes are made for each concentration, and the final drug action concentration is shown in the table below.
(§24) 7) placing the cell culture plate in the incubator and continuously incubating for 96 hours;
(§25) 8) placing the CellTiter 96@D AQueous One Solution reagent at the room temperature and thawing for 90 minutes or thawing in a water bath at 37 DEG C., and then equilibrating at the room temperature for 30 minutes;
(§26) 9) adding 20 μL/well of the CellTiter 96® AQueous One Solution reagent to the cell culture plate;
(§27) 10) placing the cell culture plate in the incubator at 37 DEG C. and continuously incubating for 3 hours;
(§28) 11) using the microplate reader to read a OD490 value of each well in the cell plate; and
(§29) 12) data processing and analysis.
(§30) GraphPad Prism5.0 software is used to process data graphically. In order to calculate the IC50, […] non-linear regression analysis is performed on the data to match a suitable dosage-effect curve. A calculation formula of the cell survival rate is as follows, the IC50 may be automatically calculated in the GraphPad Prism 5.0.
(§31) Cell survival rate (%)=(ODtest well−ODblank control)/(ODnegative control−ODblank control)×100%.
(§32) II. Experiment Device and Method Same as (II)

[7] = tested on: SKOV3 cells; assay: as above; type: cell-based, human; details: SKOV3
Description: as §19, §20, §21, §22, §23, §24, §25, §26, §27, §28, §29, §30, §31, §32

B1: DNAh-Bio-EGFRapt-Cy5: targeted fluorescent carrier: DNA nanoparticle, strands SEQ ID NO: 172-174, 5′ biotin, EGFRapt, 3′ Cy5, thio-modified ends (nucleic acid)
chain 1: CGCGCGCCCACGAGCGTTCCGGGCGCGCCTTAGTAACGTGCTTTGATGTCGATTCGACAGGAGGC
chain 2: GCGCCCGGTTCGCCGCCAGCCGCCGC
chain 3: GCGGCGGCAGGCGGCCATAGCCGTGGGCGCGCG
modifications: chain 1: DNA, 5' {Biotin}, backbone not given here; chain 2: DNA, backbone not given here; chain 3: DNA, 3' {Cy5}, backbone not given here; first and last three bases thio-modified, DNA nanoparticle with EGFR aptamer, further chemistry not fully specified
- binding rate to MCF-7 cells ([1]; 2 μM): 100%
- Binding rate (%) ([1]; MCF-7, 2 μM): 99.97%
- binding rate to NCI-H1975 cells ([2]; 2 μM): 100%
- Binding rate (%) ([2]; NCI-H1975, 2 μM): 100%
- Binding rate (%) [3]: 99.99%
- Binding rate (%) [4]: 100%
- IC50 [5]: > 316 nM
- IC50 [6]: > 316 nM
- IC50 [7]: > 1000 nM
